# Columns and labels:
# RD29B-LUC expression [1] = assay: Reconstituted ABA signaling pathway, transient expression in wild-type (Col-0) protoplasts; type: cell-based, Arabidopsis; conditions: for ABA-dependent induction of RD29B-LUC expression: co-transfected with ABI1, SnRK2.6 and ABF2, without or with 5 μM ABA, 4.5 h
# Protocol: To test whether PYL13 can act as an ABA receptor, the ABA signaling pathway in wild-type protoplasts was reconstituted. Turning now to FIG. 1, wild-type (Col-0) protoplasts were used in both panels A and B. After transfection, the protoplasts were incubated for 4.5 hours under light in the absence of ABA (open bars) or in the presence of 5 μM ABA (closed bars). Error bars indicate s.e.m. (n=3). […] ZmUBQ-GUS was used as the internal control. […] Instead, the ABA signaling pathway was reconstituted by co-expression of PYLs, ABI1, SnRK2.6, and ABF2. […] Therefore, the response of other members of the PYL family would not predict the response of PYL13 expression or over-expression in plants.
# PYL13 interacts with all clade A PP2Cs tested but binds most strongly to PP2CA. To investigate whether PYL13 inhibits PP2Cs in planta, PYL13 was co-expressed with all clade A PP2Cs in wild-type protoplasts, as shown in FIG. 4. Transfections of all PP2Cs together with SnRK2.6 and ABF2 inhibited RD29B-LUC expression to different degrees, see FIG. 4A, and the degree of inhibition was correlated with the intensity of interaction between PP2Cs and SnRK2.6 (Fujii et al., 2009). […] The ABA signaling pathway was reconstituted by co-expression of PYLs, PP2Cs, SnRK2.6, and ABF2. RD29B-LUC was used as the ABA-responsive reporter. ZmUBQ-GUS was used as the internal control. After transfection, protoplasts were incubated for 4.5 h under light in the absence of ABA (open bars) or in the presence of 5 μM ABA (closed bars). Error bars indicate s.e.m. (n=9).
# To investigate the physiological significance of the binding between PYL13 and PYLs in vivo, PYL13 was co-expressed with one of the other PYLs, ABI1, SnRK2.6, and ABF2 in wild-type protoplasts. When the transfected PYL13 plasmid was 2-fold of that of the other PYLs, co-transfections with PYL13 decreased the activity of the ABA-responsive PYLs (FIG. 5E). […] ZmUBQ-GUS was used as the internal control. After transfection, protoplasts were incubated for 4.5 h under light in the absence of ABA (open bars) or in the presence of 5 μM ABA (closed bars). Error bars indicate s.e.m. (n=3).
# The ABA signaling pathway was reconstituted by co-expression of PYL13, PYLs, ABI1, SnRK2.6, and ABF2. […] Error bars indicate s.e.m. (n=3). […] Without wishing to be bound by theory, PYL13 inhibition of other PYLs might result from direct interactions between PYL13 and other PYLs or from competition for the binding sites on PP2Cs.
# (§1) Assays for transient expression in protoplasts were performed as described (Fujii et al., 2009). Leaf strips (0.5 mm) were cut from the middle part of second leaves using a razor blade (VWR SCIENTIFIC) and submerged in 15 mL of enzyme solution containing 20 mM MES, pH 5.7, 1.5% (w/v) cellulase R10 (YAKULT PHARMACEUTICAL INDUSTRY), 0.4% (w/v) macerozyme R10 (YAKULT PHARMACEUTICAL INDUSTRY), 0.4 M mannitol, 20 mM KCl, 10 mM CaCl2, 1 mM 2-mercaptoethanol, and 0.1% BSA. The leaves were vacuum infiltrated for 30 min and then incubated without shaking for 3 h in the dark at room temperature. The enzyme/protoplast solution was diluted with 15 mL of W5 solution (2 mM MES, pH 5.7, 154 mM NaCl, 125 mM CaCl2, and 5 mM KCl) and filtered with a 75-μm nylon mesh. Protoplasts were centrifuged at 100 g for 2 min in a 30-mL round-bottomed tube (SARSTEDT), resuspended in W5 solution, and rested for 30 min at room temperature.
# Before transfection, protoplasts were changed into MMg solution (4 mM MES, pH 5.7, 0.4 M mannitol, and 15 mM MgCl2) to a final concentration of 2×10^5 cells per microliter. Protoplasts (100 μl) were gently and thoroughly mixed with the plasmid DNA mixture (less than 10 μl) and 110 μl of PEG solution (40% w/v PEG-4000, 0.2 M mannitol, and 100 mM CaCl2), incubated for 5 min, washed with 440 μl of W5 solution, and resuspended in 50 μl of WI solution (4 mM MES, pH 5.7, 0.5 M mannitol, and 20 mM KCl). After transfection, protoplasts were incubated in WI solution without ABA or with 5 μM ABA under light. […]
# RD29B-LUC expression [2] = assay: ABA-independent induction of RD29B-LUC in triple mutant protoplasts; type: cell-based, Arabidopsis; conditions: for ABA-independent RD29B-LUC expression, as share of that in the presence of 5 μM ABA: abi1/hab1/abi2 and abi1hab1pp2ca triple mutant protoplasts, with SnRK2.6 and ABF2
# Description: The basal RD29B-LUC expression level was elevated in protoplasts co-transfected with PP2CA-PYL13, HAI2-PYL13, or HAI3-PYL13, which is consistent with PYL13 inhibition of these PP2Cs in an ABA-independent manner in vivo (FIG. 4A). To exclude interference by endogenous PP2Cs in wild type protoplasts and to assess the ABA-independent selective inhibition of PP2Cs by PYL13, PYL13 was co-expressed with PP2CA, HAI1, HAI2, and HAI3 in abi1/hab1/abi2 triple mutant protoplasts, as shown in FIG. 4C. After transfection, protoplasts were incubated for 4.5 h under light in the absence of ABA. Error bars indicate s.e.m. (n=3).
# Expression of RD29B-LUC in the absence of ABA was increased in the transfections of PYL9-K63Q/L89F or PYL11-K39Q/L66F together with SnRK2.6 and ABF2 to a considerable level. The ABA-independent RD29B-LUC expression is about 70% of that in the presence of 5 μM ABA in the transfection of PYL11-K39Q/L66F, while about 30˜60% in the transfection of PYL9-K63Q/L89F (FIG. 4). […] RD29B-LUC was used as the ABA-responsive reporter. ZmUBQ-GUS was used as the internal control. After transfection, protoplasts were incubated for 4.5 h under light in the absence of ABA (open bars) or in the presence of 5 μM ABA (closed bars). Error bars indicate s.e.m. (n=4).
# as §1
# Before transfection, protoplasts were changed into MMg solution (4 mM MES, pH 5.7, 0.4 M mannitol, and 15 mM MgCl2) to a final concentration of 2×10^5 cells per microliter. Protoplasts (100 μl) were gently and thoroughly mixed with the plasmid DNA mixture (less than 10 μl) and 110 μl of PEG solution (40% w/v PEG-4000, 0.2 M mannitol, and 100 mM CaCl2), incubated for 5 min, washed with 440 μl of W5 solution, and resuspended in 50 μl of WI solution (4 mM MES, pH 5.7, 0.5 M mannitol, and 20 mM KCl). After transfection, protoplasts were incubated in WI solution without ABA or with 5 μM ABA under light. The protoplasts were harvested after 4.5 h, frozen in liquid N2, and stored at −80° C.
# The frozen protoplasts were resuspended in 50 μl of protoplast lysis buffer containing 2.5 mM Tris-phosphate, pH 7.8, 1 mM DTT, 2 mM DACTAA, 10% (v/v) glycerol, and 1% (v/v) Triton X-100. Protoplast lysates (20 μl) were mixed with 100 μl of LUC mix (PROMEGA), and LUC luminescence was measured with a plate reader (Wallac VICTOR2 plate reader).
# Protoplast lysates (2 μl) were mixed with 10 μl of 4-methylumbelliferyl β-D-glucuronide (MUG) substrate mix (10 mM Tris-HCl, pH 8, 1 mM MUG [GOLD BIOTECHNOLOGY], and 2 mM MgCl2). After the mixture was kept for 30 min at 37° C., 100 μl of 0.2 M Na2CO3 was added, and GUS activity was measured using the plate reader with the excitation filter at 355 nm and the emission filter at 460 nm.
# All the plasmids used in this assay were purified with the QIAGEN Plasmid Maxi Kit or the QIAGEN Plasmid Midi Kit. The quality of plasmid DNA is important for high transfection efficiency. RD29B::LUC (7 μg of plasmid per transfection) was used as the ABA-responsive reporter. ZmUBQ::GUS (2 μg of plasmid per transfection) was used as the internal control. […]
molecule,measurement,setting,value
Q38K/F71L (protein) MESSKQKRCRSSVVETIEAPLPLVWSILRSFDKPQAYKRFVKSCTMRSGGGGGKGGEGKGSVRDVTLVSGLPADFSTERLEELDDESHVMVVSIIGGNHRLVNYKSKTKVVASPEDMAKKTVVVESYVVDVPEGTSEEDTIFFVDNIIRYNLTSLAKLTKKMMK,ABA-dependent induction of RD29B-LUC expression,RD29B-LUC expression [1],could partially confer
same,RD29B-LUC expression,"RD29B-LUC expression [1]; with ABI1, HAB1, HAB2, HAI1, and AHG1, SnRK2.6 and ABF2",conferred an ABA-dependent induction
PYL9-K63Q/L89F (protein) MMDGVEGGTAMYGGLETVQYVRTHHQHLCRENQCTSALVKHIKAPLHLVWSLVRRFDQPQKYQPFVSRCTVIGDPEIGSLREVNVKSGFPATTSTERLELLDDEEHILGIKIIGGDHRLKNYSSILTVHPEIIEGRAGTMVIESFVVDVPQGNTKDETCYFVEALIRCNLKSLADVSERLASQDITQ,"ABA-independent RD29B-LUC expression, as share of that in the presence of 5 μM ABA",RD29B-LUC expression [2],30˜60%
same,ABA-dependent induction of RD29B-LUC expression,RD29B-LUC expression [1],cannot antagonize
PYL11-K39Q/L66F (protein) METSQKYHTCGSTLVQTIDAPLSLVWSILRRFDNPQAYQQFVKTCNLSSGDGGEGSVREVTVVSGFPAEFSRERLDELDDESHVMMISIIGGDHRLVNYRSKTMAFVAADTEEKTVVVESYVVDVPEGNSEEETTSFADTIVGFNLKSLAKLSERVAHLKL,"ABA-independent RD29B-LUC expression, as share of that in the presence of 5 μM ABA",RD29B-LUC expression [2],about 70%
same,ABA-dependent induction of RD29B-LUC expression,RD29B-LUC expression [1],cannot antagonize
Q38K/F71L/N98D (protein) MESSKQKRCRSSVVETIEAPLPLVWSILRSFDKPQAYKRFVKSCTMRSGGGGGKGGEGKGSVRDVTLVSGLPADFSTERLEELDDESHVMVVSIIGGDHRLVNYKSKTKVVASPEDMAKKTVVVESYVVDVPEGTSEEDTIFFVDNIIRYNLTSLAKLTKKMMK,ABA-dependent induction of RD29B-LUC expression,RD29B-LUC expression [1],could partially confer
Q38K/F71L/T135N (protein) MESSKQKRCRSSVVETIEAPLPLVWSILRSFDKPQAYKRFVKSCTMRSGGGGGKGGEGKGSVRDVTLVSGLPADFSTERLEELDDESHVMVVSIIGGNHRLVNYKSKTKVVASPEDMAKKTVVVESYVVDVPEGNSEEDTIFFVDNIIRYNLTSLAKLTKKMMK,ABA-dependent induction of RD29B-LUC expression,RD29B-LUC expression [1],could partially confer
Q38K/F71L/N98D/T135N (protein) MESSKQKRCRSSVVETIEAPLPLVWSILRSFDKPQAYKRFVKSCTMRSGGGGGKGGEGKGSVRDVTLVSGLPADFSTERLEELDDESHVMVVSIIGGDHRLVNYKSKTKVVASPEDMAKKTVVVESYVVDVPEGNSEEDTIFFVDNIIRYNLTSLAKLTKKMMK,expression of RD29B-LUC in the absence of ABA,"RD29B-LUC expression [2]; abi1/hab1/abi2 protoplasts, with PP2CA, HAI2, or HAI3, SnRK2.6 and ABF2",abolished
same,ABA-dependent induction of RD29B-LUC expression,RD29B-LUC expression [1],could partially confer
"PYR1: Arabidopsis thaliana ABA receptor protein PYR1, AT4G17870 (protein, listed as Arabidopsis thaliana) MPSELTPEERSELKNSIAEFHTYQLDPGSCSSLHAQRIHAPPELVWSIVRRFDKPQTYKHFIKSCSVEQNFEMRVGCTRDVIVISGLPANTSTERLDILDDERRVTGFSIIGGEHRLTNYKSVTTVHRFEKENRIWTVVLESYVVDMPEGNSEDDTRMFADTVVKLNLQKLATVAEAMARNSGDGSGSQVT",ABA-dependent induction of RD29B-LUC expression,RD29B-LUC expression [1],restored RD29B-LUC expression

# — patent publication US9518268B2, “Drought tolerant transgenic plants and method of making same” (PURDUE RESEARCH FOUNDATION, priority 2013, dated 2016)
